Measured values from paper PMC12714728 (npj Viruses, 2025).
Starred links: 1 amine or outer side, 2 acyl side, 3 side chain; linkers in the order of their positions; H or OH if unused. Positions of bridges follow the written chain, without caps; N, C: chain ends. No end group written: not given here. Suc = O=C(CCC(=O)[*:2])[*:1]

Each binder was assayed against T1, hemagglutinin (HA) ectodomain of A/Vietnam/1203/2004 (H5N1) (influenza A virus A/Vietnam/1203/2004 …) (assay: AlphaScreen or HTRF). Conditions: both partners purified.

Binder | IC50 [µM]
CLYRDPLGVAGGMGC (not fully specified (bridges); cysteine pairing not given here, source: synthetic peptide (manual solid phase Fmoc chemistry, iodine oxidation, RP-HPLC)) [cyclic peptide CP8] | 1.55
CYRDPLGVAGEMC (not fully specified; cysteine pairing not given here) [cyclic peptide CP13] | 39.8
CYEDPLGVAGGMC (not fully specified; cysteine pairing not given here) [cyclic peptide CP12] | 28.8
Suc-VSLYRDPLGVAGGMGVY-NH2 (source: synthetic peptide (manual solid phase Fmoc chemistry, RP-HPLC)) [linear peptide LP1] | 47.9
LYEDPLGVAGGMG (head-to-tail lactam cyclized (no template), source: synthetic peptide (manual solid phase Fmoc chemistry, RP-HPLC)) [cyclic peptide CP14] | 10
CYRDPLGVAGGMC (disulfide 1-13, source: synthetic peptide (manual solid phase Fmoc chemistry, iodine oxidation, RP-HPLC)) [cyclic peptide CP11] | 7.78

These binders were tested against T1, hemagglutinin (HA) ectodomain of … (assay: cell-based or functional assay). Conditions: not given.

Binder | virus neutralization assay (VNA) EC50, H5/Viet virus [µM]
CLYRDPLGVAGGMGC (not fully specified (bridges); cysteine pairing not given here, source: synthetic peptide (manual solid phase Fmoc chemistry, iodine oxidation, RP-HPLC)) [cyclic peptide CP8] | 34.6
